Laboratory results: the supplement of paper PMC9170038

System: K4 kissing-loop RNA reporter
Assay: apparent KD of K4 kissing-loop reporter; higher = weaker reporter binding
Settings: Eterna round: R107
Description: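 RNA-MaP round R107: designed RNA switches with theophylline, tryptophan, arginine or FMN aptamers are transcribed on-chip within common flanks. They are titrated with a labelled K4 kissing-loop RNA reporter in RNA-MaP buffer (100 mM Tris pH 7.5, 80 mM KCl, 4 mM MgCl2), without ligand or with the indicated ligand. Median apparent KD per design.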

[1] = input ligand: theophylline 20 uM
[2] = input ligand: tryptophan 2.4 mM
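Further: bound reporter read as fluorescence of individual clusters on recovered sequencing chips by microscopy, with normalized cluster intensities fitted with a binding model.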

Row | Sequence | apparent KD of K4 kissing-loop reporter (input ligand: FMN 200 uM) | apparent KD of K4 kissing-loop reporter (input ligand: arginine 13.2 mM) | apparent KD of K4 kissing-loop reporter (input ligand: none) | apparent KD of K4 kissing-loop reporter [1] | apparent KD of K4 kissing-loop reporter [2]
1 | UUCAGGUGUUCGGCCGCCACUCCAGUGAUGUUGGAGUGGCUUCACAAGGGCCAGGACAAUGUAAGGAGGACCGGGAAUAUCGCAG [Quonerar] | 127 nM | 116 nM | 123 nM | 89.2 nM | 134 nM
2 | UUCUAAAUGUCUGAUACCAGAGAAAAUAUAUGUAGUGAUGUUAUAUACAAAUUUAAUAAGCUCCCUUGGCAGCAGUAUGAAUUUU [AstrosExc-TheB#13] | 705 nM | 744 nM | 949 nM | 755 nM | 595 nM
3 | UUCUGCAUCUCGGCCGCCACUCACUAGUGAUGUUAGUAAGGAGCGACUAGAAAAGUCCAGUUAAUGAGGACCGGGAGAAGCUCUU [Exclusion Tryptophan B GF 1] | 281 nM | 298 nM | 312 nM | 199 nM | 217 nM
4 | UUCUGCAUCUCGGCCGCCACUCACUAGUGAUGUUAGUAAGGAGCGACUAGACAUGUCCCGUUAUUGAGGACCGGGAGAGGCUCUU [#13 K4 Tryptophan B Exclusion] | 208 nM | 162 nM | 192 nM | 162 nM | 140 nM
5 | UUGACCAAAUUCCGGUGAUCAUCGCCGCCGCGAGGACCGGUACGGCCGCCACUCGUCCCUAUGCUCGGAGUAGUGAUGUUAUUCA [theeternabot_sameState_KL_Trp_A_43] | 557 nM | 197 nM | 529 nM | 280 nM | 574 nM
6 | UUGUUUGGUUGAGAGGUUGGGCGAGAUGAUACCAGUAGAGAAGAGUACCCUUGGCAGCAUAGGAGAGAUAUAGUGAUGUUGUAUG [SSTheophA.S] | 258 nM | 187 nM | 320 nM | 498 nM | 299 nM
7 | UUGUUUGGUUGAGAGGUUGGGCGAGAUGAUACCAGUAUAUAAGAAUACCCUUGGCAGCAUAAGAAAGAUAUAGUGAUGUUGUAUA [SSTheophA.M] | 520 nM | 379 nM | 645 nM | 672 nM | 457 nM
8 | UUUAAAUAUAGUGAUGUUAUAUAACAAUGACGAGGACCGGUACGGCCGCCACUCGAGAGAGAUAAUGGUCAUACAAAUGUAUGUU [AstrosSSTryA#10] | 672 nM | 677 nM | 738 nM | 789 nM | 529 nM
9 | UUUACUCCGAGUGAUGUUCGGCGUAUCUGACGAGGACCGGUACGGCCGCCACUCGGUUCGACUACGAAGGCCUUGGCCACAGAUU | 268 nM | 174 nM | 257 nM | 284 nM | 285 nM
10 | UUUAUAAAGUCGGCCGCCACUGGAUUUAUAUUUGUUUAGUCUGGAUCAAAGUGAUGUUUUGAGUCCAGGACCGGGACAUUUGUUA [whbob_Ex_Tryp_B_w36] | 92.1 nM | 85.9 nM | 93.5 nM | 91.9 nM | 172 nM
11 | UUUAUGAUGUCGGCCGCCACUGGAUUAAUAUGUGUGUAAUCUAGUUCUGAGUGAUGUUUAGAGUCCAGGACCGGGACAUUAGUUA [#12 K4 Tryptophan B Exclusion] | 719 nM | 476 nM | 652 nM | 832 nM | 700 nM
12 | UUUAUUAAGACGGCCGCCACUGAAUUAGAGUGAUGUUCUAUAAUUUCUAAAUUAAAUUUAUUCAACAGGACCGGGUCAAUUAUUA [JR_SSTryptoB_Sub011] | 384 nM | 364 nM | 382 nM | 392 nM | 314 nM
13 | UUUAUUAAGACGGCCGCCACUGAUUCAUAGUGAUGUUAUGAUAUAAUUUUAGUGAUAUGCAUUAGCAGGACCGGGUCAAUUAUUA [JR_ExcTryptoB_Sub017] | 158 nM | 146 nM | 166 nM | 142 nM | 173 nM
14 | UUUGCAAAGUCGGCCGCCACUCCGGGCCCUAUAAAUGGGCGCAGUGAUGUUGCGGCUAGGCCUCUGAGGACCGGGACUUUGUAAA [Inusleve] | 151 nM | 52.1 nM | 52.3 nM | 77.2 nM | 179 nM
15 | UUUGGAUUGCACUAAGAGCGCAAGCGCCAACGAGGACCGGUACGGCCGCCACUCGCGGAGGAGUCCAGUGAUGUUGGACGGCCCG [Onenusan] | 233 nM | 359 nM | 359 nM | 180 nM | 172 nM
16 | UUUGUAUAGGGAAGGAGCGUGAAUGAUAAUGAAUAUAGUGAUGUUAUAUAUAAGAAAGAAUCACAGGUAGGUCGCCCGGAUGAGG [SSArgB.K] | 557 nM | 400 nM | 565 nM | 855 nM | 412 nM
17 | UUUUAAAUGUCUGAUACCAGAGAAAAUUUAUGUAGUGAUGUUAUAUACAAAUUAAAUAAGCUCCCUUGGCAGCAGUAUUAAUUUU [AstrosExc-TheB#9] | 583 nM | 596 nM | 846 nM | 623 nM | 552 nM
18 | UUUUAUAACCGAAGGAGCGCGUGGGCGCAGUGAUGUUGCGCCCGACAUCACUUCAACUUAACGCAGGUAGGUCGCGGUUUUAAUA [Arginine B (Excl) V2] | 157 nM | 132 nM | 159 nM | 158 nM | 153 nM
